The experiment addresses metastin receptor (OT7T175) stably expressed on CHO cells. Nature of the experiment: cell-based or functional assay.

For 2 substances, Specific Activity: EC50 of the test compound based on EC50 of Metastin (45-54); agonist activity by change in intracellular calcium ion level (Fluo-4 NW, FLIPR) in receptor-expressing CHO cells results are on record in patent publication US20110118172A1.

With “Compound No. 972: dimethylaminoethylureido-D-Tyr-Hyp-Asn-Thr-Phe-AzaGly-Leu-Arg(Me)-Trp-NH2 (peptide)”, the Specific Activity: EC50 of the test compound based on EC50 of Metastin (45-54); agonist activity by change in intracellular calcium ion level (Fluo-4 NW, FLIPR) in receptor-expressing CHO cells is 2.2.
The figure for “Compound No. 973: iso-butylureido-D-Tyr-Hyp-Asn-Thr-Phe-AzaGly-Leu-Arg(Me)-Trp-NH2 (peptide)” is 0.4.
